Reference: patent publication US20250263481A1 (SHIJIAZHUANG YILING PHARMACEUTICAL, published 2025)

What was measured:
[1] = biological target: human CLDN18.2 expressed on cells (human); assay: cell-based or functional assay
[2] = biological target: human CLDN18.2 expressed on cells (human); assay: cell-based or functional assay; remark: listed apart in the source
[3] = biological target: human CLDN18.2 expressed on cells (human); assay: cell-based or functional assay; remark: listed apart in the source
[4] = biological target: T1, human CLDN18.2 expressed on cells (human); assay: flow cytometry (geometric mean, Alexa Fluor 647 anti-human IgG Fc secondary) on CLDN18.2-expressing 293T cells
T1 construct: also called huCLDN18.2; CLDN18.2-expressing 293T cells
Protocol: (§1) CLDN18.2-expressing 293T cells and CLDN18.1-expressing 293T cells at a density of 2×10⁶ cells/ml in FACS buffer ([…]) were mixed with a dilution series ([…] in FACS buffer) of the chimeric antibodies, the reference antibody, or a IgG negative control (50 μL) in a 96-well V-bottom plate and incubated for 30 min on ice. After a wash with 200 μL/well FACS buffer, cells were resuspended in 30 μL/well secondary antibody Alexa Fluor® 647 AffiniPure Goat Anti-Human IgG, […] specific (Jackson, Cat. #109-605-098) and incubated for 20 min on ice. After three washes with 200 μL/well FACS buffer, cells were resuspended with 150 μl/well FACS buffer and subjected to FACS using BD LSR II Flow Cytometer (HTS). Geometric mean was used for data analysis and plots were made using Prism GraphPad.

[5] = biological target: T2, human CLDN18.1 expressed on cells (human, UniProt P56856 1-261); assay: flow cytometry (geometric mean, Alexa Fluor 647 anti-human IgG Fc secondary) on CLDN18.1-expressing 293T cells
T2 construct: also called huCLDN18.1; CLDN18.1-expressing 293T cells
T2 sequence (P56856 whole entry): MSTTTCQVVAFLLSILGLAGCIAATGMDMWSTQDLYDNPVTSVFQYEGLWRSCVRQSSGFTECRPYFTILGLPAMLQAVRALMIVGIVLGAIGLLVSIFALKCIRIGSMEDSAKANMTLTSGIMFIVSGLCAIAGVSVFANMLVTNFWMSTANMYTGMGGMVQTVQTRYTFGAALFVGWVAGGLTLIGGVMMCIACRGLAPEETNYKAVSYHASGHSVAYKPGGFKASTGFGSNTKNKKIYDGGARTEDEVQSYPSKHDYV
Protocol: as §1

[6] = biological target: T1, human CLDN18.2 expressed on cells; assay: cell-based or functional assay; remark: listed apart in the source
[7] = biological target: T1, human CLDN18.2 expressed on cells; assay: cell-based or functional assay; remark: listed apart in the source
[8] = biological target: T1, human CLDN18.2 expressed on cells; assay: KinExA 4000, antibody constant, CHO cells over-expressing huCLDN18.2 titrated
Protocol: A KinExA 4000 instrument was also used to measure binding affinity of the antibodies to surface protein of intact cells, i.e., CHO cells over-expressing huCLDN18.2. Concentration of the antibodies was held constant (CBP) and concentration of whole cells with surface protein were varied (titrant). Concentration of whole cells with surface proteins were diluted three-fold. Titrated cells were incubated with the constant binding partner (CBP). Once equilibrium was reached, the samples were centrifuged, the supernatants were recovered, and the free CBP was detected with a fluorescently labeled anti-CBP molecule.
To establish a more accurate Kd, two equilibrium curves were prepared and analyzed. One curve with low concentration of CBP at 100 pM (200 pM binding sites) and 10⁶ cells/mL with three-fold dilutions, and one curve with high concentration of CBP at 10 nM (20 nM binding sites) and 10⁶ cells/mL with three-fold dilutions. The KinExA 4000 measured the amount of unbound CBP in solution. Analysis was performed using Sapidyne Instruments n-Curve Analysis Software version 4.4.26.

[9] = biological target: T1, human CLDN18.2 expressed on cells; assay: flow cytometry (percent FITC-positive cells, GAH-FITC secondary) on CHO cells expressing huCLDN18.2
Protocol: CHO cells expressing huCLDN18.2 were used to assess the binding of the antibodies. Cells were seeded at 5×10⁵ cells per 100 μl into a well of a 96-well plate for each sample. Then, 100 μl of each serially diluted antibody was added to the cells, each dilution started at 40 µg/ml and was diluted 5-fold. Therefore, the final concentration of each antibody starts at 20 µg/ml followed by a 5-fold serial dilution. After 1 hour, the cells were washed twice and 100 μl of GAH-FITC (1:200 dilution) was added to each well. After 30 minutes, the cells were washed twice and resuspended in 120 μl of FACS buffer. The cells were analyzed via flow cytometry.
Unstained cells were used as a reference to set up overall target cell gating and to establish the FITC-negative populations, allowing us to establish the FITC-positive cell gate for each cell line. Additionally, the mean fluorescence intensity (MFI) of the entire population of cells was calculated to secondarily validate the FITC-positive results. The ratio of the gated positive cell number to the total live cell number is taken as the percentage of positive cells.

B1: YL-G1-19-04 (antibody, human IgG1, kappa)
heavy: not shown
light: DIVMTQSPSSLTVTAGEKVTLSCKSSQSLLNSGNQKNYLTWYQQRPGQPPKLLIYWASTRESGVPVRFTGSGSGADFTLTISSVQAEDLAVYFCQNAYFYPLTFGTGTKLELRRTVAAPSVFIFPPSDEQLKSGTASVVCLLNNFYPREAKVQWKVDNALQSGNSQESVTEQDSKDSTYSLSSTLTLSKADYEKHKVYACEVTHQGLSSPVTKSFNRGEC
notes: Mouse/human chimeric IgG1 kappa, first generation
- CDC on KATOIII CLDN18.2 cells, LDH: EC50 [1]: 4.76 nM
- CDC on KATOIII CLDN18.2 cells, LDH: max (% cytotoxity) [1]: 48.3%
- ADCC on KATOIII CLDN18.2 cells, LDH: EC50 [2]: 0.14 nM
- ADCC on KATOIII CLDN18.2 cells, LDH: max (% cytotoxity) [2]: 15.4%
- ADCC on NCI-N87 CLDN18.2 cells, LDH: EC50 [3]: 0.067 nM
- ADCC on NCI-N87 CLDN18.2 cells, LDH: max (% cytotoxity) [3]: 12.6%
- EC50 (read off the curve) [4]: ~0.7 µg/mL
- binding result [5]: no binding (tested: about 30 ug/ml)
- CDC on CT26 CLDN18.2 cells, LDH: EC50 [6]: 0.19 nM
- CDC on CT26 CLDN18.2 cells, LDH: max (% cytotoxity) [6]: 59.2%

B2: YL-G1-19-02 (antibody, human IgG1, kappa)
heavy: not shown
light: DIVMTQSPSSLTVTAGEKVTMSCKSSQSLLNSGNQKNYLTWYQQRPGQPPKLLIYWASTRESGVPVRFTGSGSGTDFTLTISSVQAEDLAVYYCQNAYIYPLTFGTGTKLELKRTVAAPSVFIFPPSDEQLKSGTASVVCLLNNFYPREAKVQWKVDNALQSGNSQESVTEQDSKDSTYSLSSTLTLSKADYEKHKVYACEVTHQGLSSPVTKSFNRGEC
notes: Mouse/human chimeric IgG1 kappa, first generation; also called YL-G1-02
- CDC on KATOIII CLDN18.2 cells, LDH: EC50 [1]: 1.95 nM
- CDC on KATOIII CLDN18.2 cells, LDH: max (% cytotoxity) [1]: 35.4%
- ADCC on KATOIII CLDN18.2 cells, LDH: EC50 [2]: 0.16 nM
- ADCC on KATOIII CLDN18.2 cells, LDH: max (% cytotoxity) [2]: 19.9%
- ADCC on NCI-N87 CLDN18.2 cells, LDH: EC50 [3]: 0.072 nM
- ADCC on NCI-N87 CLDN18.2 cells, LDH: max (% cytotoxity) [3]: 16.8%
- ADCC, FACS: EC50 [7]: ~0.224 nM
- ADCC, LDH: EC50 [7]: 0.3 nM
- EC50 (read off the curve) [4]: ~0.7 µg/mL
- binding result [5]: no binding (tested: about 30 ug/ml)
- CDC on CT26 CLDN18.2 cells, LDH: EC50 [6]: 0.26 nM
- CDC on CT26 CLDN18.2 cells, LDH: max (% cytotoxity) [6]: 73.4%

B3: YL-G2-D (antibody, human IgG1, kappa)
heavy: QLQQSGPELEKPGASVKISCKASGYSFTGYKMNWVKQSNGESLEWIGNIDPYYGDTTYTQKFKGKATFTVDTSSSTAYMQLKSLTSEDSAVYFCARYNRGNTMDYWGQGTSVTVSSASTKGPSVFPLAPSSKSTSGGTAALGCLVKDYFPEPVTVSWNSGALTSGVHTFPAVLQSSGLYSLSSVVTVPSSSLGTQTYICNVNHKPSNTKVDKRVEPKSCDKTHTCPPCPAPELVGGPSVFLLPPKPKDTLMISRTPEVTCVVVDVSHEDPEVKFNWYVDGVEVHNAKTKPPEEQYNSTLRVVSVLTVLHQDWLNGKEYKCKVSNKALPAPIEKTISKAKGQPREPQVYTLPPSREEMTKNQVSLTCLVKGFYPSDIAVEWESNGQPENNYKTTPLVLDSDGSFFLYSKLTVDKSRWQQGNVFSCSVMHEALHNHYTQKSLSLSPGK
light: DIVMTQSPSSLTVTAGEKVTLSCKSSQSLLNSGNQKNYLTWYQQRPGQPPKLLIYWASTRESGVPVRFTGSGSGADFTLTISSVQAEDLAVYFCQNAYFYPLTFGTGTKLELRRTVAAPSVFIFPPSDEQLKSGTASVVCLLNNFYPREAKVQWKVDNALQSGNSQESVTEQDSKDSTYSLSSTLTLSKADYEKHKVYACEVTHQGLSSPVTKSFNRGEC
notes: Second generation, Fc-engineered form of YL-G1-19-04
- CDC on KATOIII CLDN18.2 cells, LDH: EC50 [1]: 2.4 nM
- CDC on KATOIII CLDN18.2 cells, LDH: max (% cytotoxity) [1]: 49.2%
- ADCC on KATOIII CLDN18.2 cells, LDH: EC50 [2]: 0.021 nM
- ADCC on KATOIII CLDN18.2 cells, LDH: max (% cytotoxity) [2]: 18.4%
- ADCC on NCI-N87 CLDN18.2 cells, LDH: EC50 [3]: 0.0089 nM
- ADCC on NCI-N87 CLDN18.2 cells, LDH: max (% cytotoxity) [3]: 18.6%
- Kd [8]: 0.0131 nM
- EC50 (read off the curve) [9]: ~0.3 ng/mL
- CDC on CT26 CLDN18.2 cells, LDH: EC50 [6]: 0.12 nM
- CDC on CT26 CLDN18.2 cells, LDH: max (% cytotoxity) [6]: 71.8%

B4: YL-G1-19-03 (antibody, human IgG1, kappa)
heavy: not shown
light: DIVMTQSPSSLTVTAGEKVTMSCKSSQSLLNSGNQKNYLTWYQQKPGQPPKLLIYWASTRESGVPDRFTGSGSGTDFTLTISSVQAEDLAIYYCQNNYFYPLTFGAGTRLELKRTVAAPSVFIFPPSDEQLKSGTASVVCLLNNFYPREAKVQWKVDNALQSGNSQESVTEQDSKDSTYSLSSTLTLSKADYEKHKVYACEVTHQGLSSPVTKSFNRGEC
notes: as for B1
- CDC on KATOIII CLDN18.2 cells, LDH: EC50 [1]: ~4.98 nM
- CDC on KATOIII CLDN18.2 cells, LDH: max (% cytotoxity) [1]: 67%
- ADCC on KATOIII CLDN18.2 cells, LDH: EC50 [2]: 0.21 nM
- ADCC on KATOIII CLDN18.2 cells, LDH: max (% cytotoxity) [2]: 16.7%
- ADCC on NCI-N87 CLDN18.2 cells, LDH: EC50 [3]: 0.13 nM
- ADCC on NCI-N87 CLDN18.2 cells, LDH: max (% cytotoxity) [3]: 15.2%
- EC50 (read off the curve) [4]: ~0.6 µg/mL
- binding result [5]: no binding (tested: about 30 ug/ml)
- CDC on CT26 CLDN18.2 cells, LDH: EC50 [6]: 0.24 nM
- CDC on CT26 CLDN18.2 cells, LDH: max (% cytotoxity) [6]: 62.2%

B5: YL-G2-C (antibody, human IgG1, kappa)
heavy: QIQLVQSGPELRKPGETVKISCKASGFPFTTDGMSWVKQAPGKGLKWMGWINTYSGVPTYADDFKGRVAFSLETSASTAYLQIKNLKNEDTATYFCARFRRGNALDNWGQGTSVTVSSASTKGPSVFPLAPSSKSTSGGTAALGCLVKDYFPEPVTVSWNSGALTSGVHTFPAVLQSSGLYSLSSVVTVPSSSLGTQTYICNVNHKPSNTKVDKRVEPKSCDKTHTCPPCPAPELVGGPSVFLLPPKPKDTLMISRTPEVTCVVVDVSHEDPEVKFNWYVDGVEVHNAKTKPPEEQYNSTLRVVSVLTVLHQDWLNGKEYKCKVSNKALPAPIEKTISKAKGQPREPQVYTLPPSREEMTKNQVSLTCLVKGFYPSDIAVEWESNGQPENNYKTTPLVLDSDGSFFLYSKLTVDKSRWQQGNVFSCSVMHEALHNHYTQKSLSLSPGK
light: DIVMTQSPSSLTVTAGEKVTMSCKSSQSLLNSGNQKNYLTWYQQKPGQPPKLLIYWASTRESGVPDRFTGSGSGTDFTLTISSVQAEDLAIYYCQNNYFYPLTFGAGTRLELKRTVAAPSVFIFPPSDEQLKSGTASVVCLLNNFYPREAKVQWKVDNALQSGNSQESVTEQDSKDSTYSLSSTLTLSKADYEKHKVYACEVTHQGLSSPVTKSFNRGEC
notes: Second generation, Fc-engineered
- CDC on KATOIII CLDN18.2 cells, LDH: EC50 [1]: ~6.04 nM
- CDC on KATOIII CLDN18.2 cells, LDH: max (% cytotoxity) [1]: 74.6%
- ADCC on KATOIII CLDN18.2 cells, LDH: EC50 [2]: 0.019 nM
- ADCC on KATOIII CLDN18.2 cells, LDH: max (% cytotoxity) [2]: 17.6%
- ADCC on NCI-N87 CLDN18.2 cells, LDH: EC50 [3]: 0.0078 nM
- ADCC on NCI-N87 CLDN18.2 cells, LDH: max (% cytotoxity) [3]: 14.9%
- Kd [8]: 0.0386 nM
- EC50 (read off the curve) [9]: ~0.6 ng/mL
- CDC on CT26 CLDN18.2 cells, LDH: EC50 [6]: 0.1 nM
- CDC on CT26 CLDN18.2 cells, LDH: max (% cytotoxity) [6]: 65.2%

B6: YL-G1-19-01 (antibody, human IgG1, kappa, V domains shown)
VH: QVQLQQSGAELVRPGTSVKVSCKASGYAFTNYLIEWVKQRPGQGLEWIGVINPGSGGTNYNEKFKGKATLTADKSSNTAYMQLSSLTSEDSAVYFCARVYYGNSFGYWGQGTLVTVSA
VL: DIVMTQSPSSLTVTAGEKVTMSCKSSQSLLNSGNQKNYLTWYQQKPGQPPKLLIYWASTRESGVPDRFTGSGSGTDFTLTISSVQAEDLAVYYCQNEYFYPFTFGSGTKLEIKR
notes: also called chimeric antibody with the variable region of one of the mouse mAbs
- EC50 (read off the curve) [4]: ~1 µg/mL
- binding result [5]: no binding (tested: about 30 ug/ml)
